Results as given in publication PMC9102066, “Cloning and Functional Characterization of Dog OCT1 and OCT2: Another Step in Exploring Species Differences in Organic Cation Transporters” (International Journal of Molecular Sciences, 2022).

B1: human OCT2 (Homo sapiens) (protein)
chain: MPTTVDDVLEHGGEFHFFQKQMFFLLALLSATFAPIYVGIVFLGFTPDHRCRSPGVAELSLRCGWSPAEELNYTVPGPGPAGEASPRQCRRYEVDWNQSTFDCVDPLASLDTNRSRLPLGPCRDGWVYETPGSSIVTEFNLVCANSWMLDLFQSSVNVGFFIGSMSIGYIADRFGRKLCLLTTVLINAAAGVLMAISPTYTWMLIFRLIQGLVSKAGWLIGYILITEFVGRRYRRTVGIFYQVAYTVGLLVLAGVAYALPHWRWLQFTVSLPNFFFLLYYWCIPESPRWLISQNKNAEAMRIIKHIAKKNGKSLPASLQRLRLEEETGKKLNPSFLDLVRTPQIRKHTMILMYNWFTSSVLYQGLIMHMGLAGDNIYLDFFYSALVEFPAAFMIILTIDRIGRRYPWAASNMVAGAACLASVFIPGDLQWLKIIISCLGRMGITMAYEIVCLVNAELYPTFIRNLGVHICSSMCDIGGIITPFLVYRLTNIWLELPLMVFGVLGLVAGGLVLLLPETKGKALPETIEEAENMQRPRKNKEKMIYLQVQKLDIPLN
notes: expressed in transfected cells; host or cells: HEK293 (Flp-In system)
B2: mouse OCT1 (Mus musculus) (protein)
chain: MPTVDDVLEHVGEFGWFQKQAFLLLCLISASLAPIYVGIVFLGFTPDHHCRSPGVAELSQRCGWSPAEELNYTVPGLGSAGEASFLSQCMKYEVDWNQSTLDCVDPLSSLAANRSHLPLSPCEHGWVYDTPGSSIVTEFNLVCGDAWKVDLFQSCVNLGFFLGSLVVGYIADRFGRKLCLLVTTLVTSLSGVLTAVAPDYTSMLLFRLLQGMVSKGSWVSGYTLITEFVGSGYRRTTAILYQVAFTVGLVGLAGVAYAIPDWRWLQLAVSLPTFLFLLYYWFVPESPRWLLSQKRTTQAVRIMEQIAQKNRKVPPADLKMMCLEEDASERRSPSFADLFRTPSLRKHTLILMYLWFSCAVLYQGLIMHVGATGANLYLDFFYSSLVEFPAAFIILVTIDRIGRIYPIAASNLVAGAACLLMIFIPHELHWLNVTLACLGRMGATIVLQMVCLVNAELYPTFIRNLGMMVCSALCDLGGIFTPFMVFRLMEVWQALPLILFGVLGLSAGAVTLLLPETKGVALPETIEEAENLGRRKSKAKENTIYLQVQTGKSPHT
notes: as for B1

Legend:
[1] = substrate: CC(Cc1ccc(O)cc1)NCC(O)c1cc(O)cc(O)c1; test: cells, lysate or membranes named; details: HEK293, 2 min, Michaelis–Menten fit, pH 7.4
[2] = substrate: CCCC[N+]1(C)[C@@H]2C[C@@H](OC(=O)[C@H](CO)c3ccccc3)C[C@H]1[C@@H]1O[C@@H]12; test: Uptake in HEK293 cells stably overexpressing human OCT2; assay type: in vitro ADME; details: other: OCT2-mediated uptake, HEK293, 2 min, Michaelis–Menten fit; pH 7.4
Protocol: (§1) The total uptake is shown for the overexpressing and control cells (left hand side). OCT2-mediated uptake (right hand side) was calculated by subtracting the uptake of control cells (pcDNA5) from the uptake of OCT2-overexpressing cells. The means and standard errors of the means are shown for at least three independent experiments.
(§2) Cells were cultured in Dulbecco’s Modified Eagle’s Medium (DMEM) supplemented with 10% FBS, 100 U/mL penicillin, and 100 µg/mL streptomycin at 37 °C and 5% CO2. Cells were passaged twice a week.
(§3) At 48 h prior to the experiment, 6 × 10^5 cells were seeded per well in 12-well plates pre-coated with poly-D-lysine.
(§4) Cellular uptake experiments were performed at 37 °C and pH 7.4 using Hanks’ Buffered Salt Solution (HBSS) supplemented with 10 mM HEPES (referred to as HBSS+ in the following). Cells were washed with 1 mL pre-warmed (37 °C) HBSS+ and uptake was initiated by adding 400 µL of pre-warmed HBSS+ containing the substrate. Uptake was allowed for exactly 2 min and stopped by adding 2 mL ice-cold HBSS+. Cells were washed twice with 2 mL ice-cold HBSS+ then lysed with 80% acetonitrile supplemented with internal standard. The intracellularly accumulated substrate concentrations were measured using LC-MS/MS as described in the following and normalized to the amount of total protein in the samples as measured using the bicinchoninic acid assay [49].
(§5) Intracellular substrate concentrations were quantified using LC-MS/MS. […] The pellet was reconstituted with 200 µL 0.1% formic acid and between 5 and 10 µL was injected into the LC-MS/MS system (Table S2).
(§6) An API4000 QTRAP tandem mass spectrometer with ESI interface (AB SCIEX, Darmstadt, Germany) coupled to a Shimadzu Nexera X2 UHPLC system with LC 30AD pumps and SiL 30AC autosampler (Shimadzu, Duisburg, Germany) was used for analysis.
(§7) Intrinsic clearance CLint was calculated by dividing vmax by KM for each experiment.

[3] = substrate: O=C(O[C@H]1C[C@H]2CC[C@@H](C1)[N+]21CCCC1)C(O)(c1ccccc1)c1ccccc1; test: as above; assay type: in vitro ADME; details: other: OCT2-mediated uptake, HEK293, 2 min, Michaelis–Menten fit; pH 7.4
Protocol: as §1, §2, §3, §4, §5, §6, §7

[4] = substrate: CCCC[N+]1(C)[C@@H]2C[C@@H](OC(=O)[C@H](CO)c3ccccc3)C[C@H]1[C@@H]1O[C@@H]12; test: Uptake in HEK293 cells stably overexpressing mouse OCT1; assay type: in vitro ADME; details: other: OCT1-mediated uptake, HEK293, 2 min, Michaelis–Menten fit; pH 7.4
Protocol: (§8) The total uptake is shown for the overexpressing and control cells (left hand side). OCT1-mediated uptake (right hand side) was calculated by subtracting the uptake of control cells (pcDNA5) from the uptake of OCT1-overexpressing cells. The means and standard errors of the means are shown for at least three independent experiments.
as §3, §4, §5, §6
(§9) Intrinsic clearance CLint was calculated by dividing vmax by KM for each experiment. Kinetic parameters were compared between OCT1 orthologs using an ANOVA followed by Tukey’s honestly significant difference post hoc comparisons in SPSS Statistics version 28 (SPSS Inc., IBM, Chicago, IL, USA).

[5] = substrate: CN(C)C(=N)N=C(N)N; test: as above; assay type: in vitro ADME; details: other: OCT1-mediated uptake, HEK293, 2 min, Michaelis–Menten fit; pH 7.4
Protocol: as §8, §3, §4, §5, §6, §9

[6] = substrate: O=C(O[C@H]1C[C@H]2CC[C@@H](C1)[N+]21CCCC1)C(O)(c1ccccc1)c1ccccc1; test: as above; assay type: in vitro ADME; details: other: OCT1-mediated uptake, HEK293, 2 min, Michaelis–Menten fit; pH 7.4
Protocol: as §8, §3, §4, §5, §6, §9

| Protein | Km ([1]; other: OCT2-mediated uptake) [µM] | Km [2] [µM] | Vmax [2] [µmol/min/mg] | Vmax/Km [2] [µL/min/mg] | Km [3] [µM] | Vmax [3] [µmol/min/mg] | Vmax/Km [3] [µL/min/mg] | Km ([1]; other: OCT1-mediated uptake) [µM] | Km [4] [µM] | Vmax [4] [µmol/min/mg] | Vmax/Km [4] [µL/min/mg] | Km [5] [µM] | Vmax [5] [µmol/min/mg] | Vmax/Km [5] [µL/min/mg] | Km [6] [µM] | Vmax [6] [µmol/min/mg] | Vmax/Km [6] [µL/min/mg] |
| --- | --- | --- | --- | --- | --- | --- | --- | --- | --- | --- | --- | --- | --- | --- | --- | --- | --- |
| B1 | 8.81 ± 0.55 | 7.62 ± 0.85 | 0.000616 | 81.6 | 0.49 ± 0.15 | 0.000119 | 278 | – | – | – | – | – | – | – | – | – | – |
| B2 | – | – | – | – | – | – | – | 10.7 ± 1.09 | 6.60 ± 1.13 | 0.000778 | 131 | 298 ± 46.9 | 0.0109 ± 0.00125 | 38.7 | 1.92 ± 0.85 | 0.000255 | 180 |
